# Assay results from US20230087785A1, “Leucine-Rich Repeat Kinase 2 Allosteric Modulators” (VIB VZW, priority 2020, published 2023).
# B1: Nb22: LRRK2-specific Nanobody, SEQ ID NO: 9 (protein)
# VHH: MAQVQLVESGGGLVQAGGSLRLSCAASGRTFSSYTMGWFRQAPGKEREFVAAIRWSGGSTYYADSVKGRFTISRDNAKNTVYLQMNSLKPEDTAVYYCAASDRGGFIATSGGWMDYWGKGTQVTVSS
# modifications: Nanobody CA13611
# B2: Nb23: LRRK2-specific Nanobody, SEQ ID NO: 3 (protein)
# VHH: MAQVQLVESGGGLVQAGGSLRLSCAASGRTFSRYTMGWFRQAPGKDREFVARITTSGAVTTYADSAKGRFTISRDNAKNTVYLQMNTLKPEDTAVYYCAAGQGQLSSQSRFVDYWGQGTQVTVSS
# modifications: Nanobody CA13612
# B3: Nb42: LRRK2-specific Nanobody, SEQ ID NO: 6 (protein)
# VHH: MAQVQLVESGGGLVQAGGSLRLSCAASGDVNYAVGWFRQAPRKEREFVAAINWRGDNTDYTDSVKGRFTISRDNAKNTVYLQMNSLKPEDTAVYYCAAKSAPYWYSDIAPDYWGQGTQVTVSS
# modifications: Nanobody CA14259
# B4: Nb1: LRRK2-specific Nanobody, SEQ ID NO: 1 (protein)
# VHH: MAQVQLVESGGGLVQAGGSLRLSCVASGRIFSGNAMGWYRQAPGRQRELVAGITNGGYTNYRQFVKGRFTISRDNAKRTVYLQMNSLKPEDTAVYYCNALDREARQVDYWGQGTQVTVSS
# modifications: Nanobody CA12610
# B5: Nb6: LRRK2-specific Nanobody, SEQ ID NO: 2 (protein)
# VHH: MAQVQLVESGGGLVQAGGSLRLSCAASGSIFSPTAMGWYRQAPGKERELVAGITSGGYTNYRNFARGRFTISRDNAKKTVYLQMNSLNPEDTAVYYCNTLTISWSWGQGTQVTVSS
# modifications: Nanobody CA12618
# Columns and labels:
# [1] = target: T1, endogenous LRRK2 (Mus musculus, UniProt Q5S006); assay: Colocalization of GFP-Nbs with endogenous LRRK2 on zymosan-containing phagosomes in RAW264.7 cells; format: cell-based; settings: RAW264.7 cells transfected with GFP-Nbs, zymosan 30 mins, fixed cells
# T1 construct: endogenous in cells; host or cells: RAW264.7
# [2] = target: T2, LRRK2 (Homo sapiens, UniProt Q5S007, M2397T/R50H); assay: Competition ELISA titration; format: binding; settings: Nb 450 nM to 0.2 nM; for shift of the Nb ELISA titration curve in presence of AdoCbl: 250 μM; for shift of the Nb ELISA titration curve in presence of MLi-2: large excess of MLi-2 (1 μM)
# T2 construct: Full-length human LRRK2 was expressed and purified based on previously developed protocols; SF tag (FLAG-tag + Twin-Strep-tag); made in house; host or cells: HEK 293T
# Excerpt: LRRK2 was coated in the wells of the ELISA plate and the ELISA signal for a dilution series of the respective Nbs (detected via their C-terminal EPEA-tag) is plotted in function of the Nb concentration. […] A “no antigen control”, where no LRRK2 was coated on the bottom of the well, is also included.
# Most currently described LRRK2 inhibitors bind directly to the ATP-binding pocket of the kinase domain. […] Two of the in vitro kinase activity inhibiting Nbs described herein (Nb 1 and Nb6) bind LRRK2 predominantly via interactions with the COR-B domain, thus proposing a novel mechanism of action, and thereby excluding a mechanism of inhibition similar to these previously described LRRK2 kinase inhibitors that all directly interact with the kinase domain. […] To verify and confirm that Nb1, Nb6 and Nb23 bind LRRK2 in a different mode than any known small molecule kinase inhibitor, thus also different that the reported vitamin B12 forms, a competition ELISA titration experiment was performed (FIGS. 17A-17C). In this experimental setup, the ELISA experiment was performed using a fixed concentration of LRRK2 coated on the bottom of the ELISA plate, and using a dilution series of either of the three Nbs ranging from 450 nM to 0.2 nM. Detection of Nb binding in ELISA is performed using their C-terminal EPEA-tag, resulting in a dose-response titration curve reflecting an apparent affinity of the Nbs. […] Additionally, as a positive control, a repetition of the setup was performed in presence of an excess (9 μm) of the corresponding untagged Nb.
# The ELISA experiment was performed similar as described above, using a fixed concentration of LRRK2 coated on the bottom of the ELISA plate, and using a 1:4 dilution series of Nb1, Nb6 or Nb23 ranging from 450 nM to 0.2 nM. Detection of Nb binding was performed using the C-terminal EPEA tag of the Nbs as described before, resulting in a dose response titration curve reflecting an apparent affinity of the Nbs. […] A “no antigen control”, where no LRRK2 was coated on the bottom of the well, was also included. The absorbance signal (A405 nm) was read out at different time points and the A405 nm at 0.5 h (Nb6 and Nb23) or 10 h (Nb1) was plotted in function of the Nb concentration.
# T2 sequence (Q5S007 whole entry R50H/M2397T): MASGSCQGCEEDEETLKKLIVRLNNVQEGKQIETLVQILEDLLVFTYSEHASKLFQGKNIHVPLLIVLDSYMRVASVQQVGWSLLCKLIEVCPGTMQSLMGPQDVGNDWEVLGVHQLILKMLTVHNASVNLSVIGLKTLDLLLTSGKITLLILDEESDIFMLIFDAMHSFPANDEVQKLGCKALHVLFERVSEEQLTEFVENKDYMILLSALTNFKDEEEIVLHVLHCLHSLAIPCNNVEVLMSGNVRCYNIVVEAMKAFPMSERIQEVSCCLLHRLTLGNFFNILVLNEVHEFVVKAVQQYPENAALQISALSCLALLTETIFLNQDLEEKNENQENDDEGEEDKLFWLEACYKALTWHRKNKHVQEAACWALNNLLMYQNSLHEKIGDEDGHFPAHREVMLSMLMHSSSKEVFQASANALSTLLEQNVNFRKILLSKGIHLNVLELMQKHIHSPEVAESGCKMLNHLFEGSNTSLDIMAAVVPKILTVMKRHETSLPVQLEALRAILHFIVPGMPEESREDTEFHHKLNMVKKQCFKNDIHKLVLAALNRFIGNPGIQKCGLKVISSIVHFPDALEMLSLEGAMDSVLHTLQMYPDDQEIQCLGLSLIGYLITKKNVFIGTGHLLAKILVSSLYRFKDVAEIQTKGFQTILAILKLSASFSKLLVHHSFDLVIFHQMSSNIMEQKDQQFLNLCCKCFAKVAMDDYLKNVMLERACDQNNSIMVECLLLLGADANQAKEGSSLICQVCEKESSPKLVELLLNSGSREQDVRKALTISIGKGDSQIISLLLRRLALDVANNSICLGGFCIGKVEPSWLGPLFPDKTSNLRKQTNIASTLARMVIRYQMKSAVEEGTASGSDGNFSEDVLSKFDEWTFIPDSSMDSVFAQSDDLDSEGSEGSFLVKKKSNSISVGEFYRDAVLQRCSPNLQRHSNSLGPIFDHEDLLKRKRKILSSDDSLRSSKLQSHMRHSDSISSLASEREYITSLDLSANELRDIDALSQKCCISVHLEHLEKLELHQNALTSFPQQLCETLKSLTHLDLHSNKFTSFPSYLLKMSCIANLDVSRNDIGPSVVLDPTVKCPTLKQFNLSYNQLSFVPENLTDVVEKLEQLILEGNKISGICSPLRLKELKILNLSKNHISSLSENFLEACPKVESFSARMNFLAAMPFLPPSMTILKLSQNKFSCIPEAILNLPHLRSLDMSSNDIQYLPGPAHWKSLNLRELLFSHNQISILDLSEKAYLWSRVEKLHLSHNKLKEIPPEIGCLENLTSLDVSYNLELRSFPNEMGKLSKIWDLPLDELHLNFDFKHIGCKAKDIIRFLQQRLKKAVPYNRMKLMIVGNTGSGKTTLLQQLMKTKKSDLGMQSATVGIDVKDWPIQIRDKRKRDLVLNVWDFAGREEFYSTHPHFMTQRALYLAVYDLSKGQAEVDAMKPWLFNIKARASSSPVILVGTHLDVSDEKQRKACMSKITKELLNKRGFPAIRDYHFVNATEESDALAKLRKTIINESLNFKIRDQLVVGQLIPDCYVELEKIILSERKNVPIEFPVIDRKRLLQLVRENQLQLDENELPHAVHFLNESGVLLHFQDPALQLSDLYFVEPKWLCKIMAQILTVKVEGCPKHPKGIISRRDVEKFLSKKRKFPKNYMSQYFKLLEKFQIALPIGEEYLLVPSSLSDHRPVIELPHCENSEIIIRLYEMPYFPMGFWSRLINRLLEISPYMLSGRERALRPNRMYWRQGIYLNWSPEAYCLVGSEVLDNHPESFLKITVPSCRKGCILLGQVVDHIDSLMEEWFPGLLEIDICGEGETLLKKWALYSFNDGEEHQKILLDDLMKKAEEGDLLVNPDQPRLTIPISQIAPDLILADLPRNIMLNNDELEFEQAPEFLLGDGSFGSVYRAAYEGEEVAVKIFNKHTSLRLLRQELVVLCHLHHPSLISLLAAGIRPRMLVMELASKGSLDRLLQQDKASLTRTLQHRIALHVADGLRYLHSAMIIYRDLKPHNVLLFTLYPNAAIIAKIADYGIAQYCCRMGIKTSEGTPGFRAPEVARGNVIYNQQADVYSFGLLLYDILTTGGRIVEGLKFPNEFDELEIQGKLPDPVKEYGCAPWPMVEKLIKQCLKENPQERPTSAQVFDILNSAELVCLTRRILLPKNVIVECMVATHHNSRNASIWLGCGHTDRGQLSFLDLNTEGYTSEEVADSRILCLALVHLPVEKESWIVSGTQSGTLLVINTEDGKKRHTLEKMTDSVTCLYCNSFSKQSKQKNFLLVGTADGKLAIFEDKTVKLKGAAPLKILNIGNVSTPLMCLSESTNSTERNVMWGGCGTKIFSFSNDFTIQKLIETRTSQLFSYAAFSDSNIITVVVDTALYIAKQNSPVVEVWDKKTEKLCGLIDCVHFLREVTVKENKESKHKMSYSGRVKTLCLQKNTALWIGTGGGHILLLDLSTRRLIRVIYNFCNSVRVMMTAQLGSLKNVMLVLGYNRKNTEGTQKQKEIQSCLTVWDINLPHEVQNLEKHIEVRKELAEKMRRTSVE
# T1 sequence (Q5S006 whole entry): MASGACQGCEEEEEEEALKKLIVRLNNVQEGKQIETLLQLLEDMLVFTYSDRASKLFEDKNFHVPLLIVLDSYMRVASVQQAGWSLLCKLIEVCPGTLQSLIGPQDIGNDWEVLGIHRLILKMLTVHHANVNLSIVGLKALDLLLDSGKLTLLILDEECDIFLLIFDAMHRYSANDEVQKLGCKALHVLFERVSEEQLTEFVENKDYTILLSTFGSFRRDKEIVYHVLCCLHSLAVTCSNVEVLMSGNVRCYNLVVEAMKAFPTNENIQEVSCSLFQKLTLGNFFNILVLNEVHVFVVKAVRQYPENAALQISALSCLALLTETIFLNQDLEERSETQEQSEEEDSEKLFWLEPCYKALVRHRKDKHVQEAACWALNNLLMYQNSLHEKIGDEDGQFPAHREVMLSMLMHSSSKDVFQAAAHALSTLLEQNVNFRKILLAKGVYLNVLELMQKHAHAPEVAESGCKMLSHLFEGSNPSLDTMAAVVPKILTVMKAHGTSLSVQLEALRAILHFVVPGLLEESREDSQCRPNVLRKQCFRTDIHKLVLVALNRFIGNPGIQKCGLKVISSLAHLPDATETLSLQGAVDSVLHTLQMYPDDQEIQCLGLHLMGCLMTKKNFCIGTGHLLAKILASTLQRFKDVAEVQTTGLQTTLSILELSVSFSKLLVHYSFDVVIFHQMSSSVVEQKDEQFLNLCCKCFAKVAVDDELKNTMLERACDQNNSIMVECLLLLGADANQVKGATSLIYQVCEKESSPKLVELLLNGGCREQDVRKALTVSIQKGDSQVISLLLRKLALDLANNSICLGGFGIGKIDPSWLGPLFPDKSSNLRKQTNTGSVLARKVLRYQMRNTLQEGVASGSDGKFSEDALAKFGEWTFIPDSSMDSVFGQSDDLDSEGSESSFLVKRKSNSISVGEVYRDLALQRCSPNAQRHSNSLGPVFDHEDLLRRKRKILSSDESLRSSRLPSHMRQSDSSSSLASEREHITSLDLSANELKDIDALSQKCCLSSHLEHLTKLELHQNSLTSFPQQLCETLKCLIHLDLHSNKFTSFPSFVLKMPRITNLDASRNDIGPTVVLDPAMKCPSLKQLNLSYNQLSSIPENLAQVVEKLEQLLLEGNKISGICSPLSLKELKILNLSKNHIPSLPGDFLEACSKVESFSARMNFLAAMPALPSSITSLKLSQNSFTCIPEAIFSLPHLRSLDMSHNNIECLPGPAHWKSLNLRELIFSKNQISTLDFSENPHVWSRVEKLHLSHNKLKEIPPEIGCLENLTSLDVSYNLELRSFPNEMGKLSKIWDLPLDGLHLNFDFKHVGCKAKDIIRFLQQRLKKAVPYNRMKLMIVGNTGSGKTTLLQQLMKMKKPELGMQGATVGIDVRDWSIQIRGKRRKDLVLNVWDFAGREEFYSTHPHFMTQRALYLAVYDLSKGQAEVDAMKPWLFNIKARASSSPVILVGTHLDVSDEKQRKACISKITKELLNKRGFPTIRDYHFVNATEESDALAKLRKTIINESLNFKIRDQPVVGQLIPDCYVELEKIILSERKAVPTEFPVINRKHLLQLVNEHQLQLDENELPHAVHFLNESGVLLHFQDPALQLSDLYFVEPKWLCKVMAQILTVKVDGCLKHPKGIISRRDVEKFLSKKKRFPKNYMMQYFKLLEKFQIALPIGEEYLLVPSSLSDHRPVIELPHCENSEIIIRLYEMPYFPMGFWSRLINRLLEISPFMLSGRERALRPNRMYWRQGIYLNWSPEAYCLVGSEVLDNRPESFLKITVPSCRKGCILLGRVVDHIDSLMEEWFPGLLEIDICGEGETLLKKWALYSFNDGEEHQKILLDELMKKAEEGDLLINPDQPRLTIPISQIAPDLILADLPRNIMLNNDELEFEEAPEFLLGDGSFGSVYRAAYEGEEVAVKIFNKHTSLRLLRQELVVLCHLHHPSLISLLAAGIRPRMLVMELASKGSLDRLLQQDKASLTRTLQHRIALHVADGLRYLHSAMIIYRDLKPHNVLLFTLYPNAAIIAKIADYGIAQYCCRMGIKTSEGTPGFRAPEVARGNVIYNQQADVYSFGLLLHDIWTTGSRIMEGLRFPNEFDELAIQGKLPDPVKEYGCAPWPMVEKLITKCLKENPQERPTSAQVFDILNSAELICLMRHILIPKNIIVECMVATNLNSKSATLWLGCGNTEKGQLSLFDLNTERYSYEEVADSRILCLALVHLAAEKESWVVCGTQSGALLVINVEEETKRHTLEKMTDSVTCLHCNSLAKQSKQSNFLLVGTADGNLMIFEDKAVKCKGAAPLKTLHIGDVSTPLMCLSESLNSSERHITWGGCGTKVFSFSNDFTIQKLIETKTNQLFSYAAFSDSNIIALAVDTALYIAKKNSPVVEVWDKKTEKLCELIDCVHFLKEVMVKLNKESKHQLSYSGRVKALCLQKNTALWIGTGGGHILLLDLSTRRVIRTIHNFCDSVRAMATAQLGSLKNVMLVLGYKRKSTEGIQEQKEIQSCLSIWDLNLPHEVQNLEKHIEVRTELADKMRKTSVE
Molecule,colocalization with endogenous LRRK2 on phagosomes [1],shift of the Nb ELISA titration curve in presence of AdoCbl [2],shift of the Nb ELISA titration curve in presence of MLi-2 [2]
B1,clearly colocalized with LRRK2 on zymosan-containing phagosomes,,
B2,clearly colocalized with LRRK2 on zymosan-containing phagosomes,no rightward shift is observed,no rightward shift is observed
B3,did not colocalize with endogenous LRRK2,,
B4,LRRK2 recruitment to phagosomes was slightly detectable,no rightward shift is observed,no rightward shift is observed
B5,LRRK2 recruitment to phagosomes was slightly detectable,no rightward shift is observed,no rightward shift is observed
